Assays:
[1] = target: T1, insulin-like growth factor binding protein-4 ([125I]IGFBP-4) (UniProt P22692)
T1 sequence: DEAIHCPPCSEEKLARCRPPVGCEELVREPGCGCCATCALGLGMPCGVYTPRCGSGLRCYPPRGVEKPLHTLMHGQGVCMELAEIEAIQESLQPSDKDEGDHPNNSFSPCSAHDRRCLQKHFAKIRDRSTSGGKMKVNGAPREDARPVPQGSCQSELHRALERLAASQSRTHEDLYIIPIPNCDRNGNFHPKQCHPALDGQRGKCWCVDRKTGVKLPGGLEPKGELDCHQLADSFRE

[2] = target: PAPP-A/proMBP complex purified from pregnancy serum (human) (UniProt Q13219); assay: cell-based or functional assay
[3] = target: PAPP-A (IGFBP-4 protease) in IVF follicular fluid (human) (UniProt Q13219); assay: cell-based or functional assay
IGFBP-4 = IGFBP-4 cleavage by PAPP-A forms (rPAPP-A, PAPP-A/proMBP, column fractions); type: biochemical, human; details: for Amount required to obtain the same degree of IGFBP-4 cleavage: initial experiment, purified proteins; for IGF-dependent IGFBP-4 protease activity: with and without IGF-II
Procedure: (§1) PAPP-A Activity. IGFBP-4 proteolysis was assayed by incubating the sample overnight at 37° C. with 2 mM CaC2/50 mM Tris (pH 7.5)/10,000 cpm of [^125I]IGFBP-4 in the absence and presence of 5 nM IGF-II in a total volume of 25 μl. Proteins were separated by reducing 15% SDS/PAGE and visualized by autoradiography. For some experiments, PAPP-A polyclonal antibody or nonspecific rabbit IgG was added to the assay mixture or was used in conjunction with protein G plus protein A-agarose (Oncogene Science) to immunoprecipitate IGFBP-4 protease activity before assay.
(§2) Measurement of PAPP-A Proteolytic Activity: IGFBP-4 proteolysis was assayed as described in Example 1. The activity of the PAPP-A/proMBP complex was compared to the activity of rPAPP-A in two parallel time course experiments scaled up to larger reaction volumes: Equal amounts of sample A (pool of pregnancy serum diluted to 7 μg/ml of PAPP-A/proMBP as determined by ELISA calibrated with purified PAPP-A/proMBP) and sample B (as sample A, but rPAPP-A supernatant added to 7 μg/ml as determined by ELISA calibrated with purified rPAPP-A) were incubated with [^125I]IGFBP-4 in the presence of 5 nM IGF-II. […] The experiment with sample A was also carried out in the presence of polyclonal anti(PAPP-A/proMBP). A similar time course experiment was performed for comparison of PAPP-A activity in selected column fractions.

rPAPP-A = target: T2, rPAPP-A (Homo sapiens, UniProt Q13219); assay: Activity of recombinant PAPP-A against IGFBP-4; type: biochemical; details: in presence of IGF
T2 construct: because the mature rPAPP-A is antigenic, functional, and secreted abundantly into the culture medium; made in house; host or cells: human embryonic kidney 293T cells, pcDNA3.1-PAPP-A; culture supernatant or purified
T2 sequence (Q13219 with tags, fused parts or gaps): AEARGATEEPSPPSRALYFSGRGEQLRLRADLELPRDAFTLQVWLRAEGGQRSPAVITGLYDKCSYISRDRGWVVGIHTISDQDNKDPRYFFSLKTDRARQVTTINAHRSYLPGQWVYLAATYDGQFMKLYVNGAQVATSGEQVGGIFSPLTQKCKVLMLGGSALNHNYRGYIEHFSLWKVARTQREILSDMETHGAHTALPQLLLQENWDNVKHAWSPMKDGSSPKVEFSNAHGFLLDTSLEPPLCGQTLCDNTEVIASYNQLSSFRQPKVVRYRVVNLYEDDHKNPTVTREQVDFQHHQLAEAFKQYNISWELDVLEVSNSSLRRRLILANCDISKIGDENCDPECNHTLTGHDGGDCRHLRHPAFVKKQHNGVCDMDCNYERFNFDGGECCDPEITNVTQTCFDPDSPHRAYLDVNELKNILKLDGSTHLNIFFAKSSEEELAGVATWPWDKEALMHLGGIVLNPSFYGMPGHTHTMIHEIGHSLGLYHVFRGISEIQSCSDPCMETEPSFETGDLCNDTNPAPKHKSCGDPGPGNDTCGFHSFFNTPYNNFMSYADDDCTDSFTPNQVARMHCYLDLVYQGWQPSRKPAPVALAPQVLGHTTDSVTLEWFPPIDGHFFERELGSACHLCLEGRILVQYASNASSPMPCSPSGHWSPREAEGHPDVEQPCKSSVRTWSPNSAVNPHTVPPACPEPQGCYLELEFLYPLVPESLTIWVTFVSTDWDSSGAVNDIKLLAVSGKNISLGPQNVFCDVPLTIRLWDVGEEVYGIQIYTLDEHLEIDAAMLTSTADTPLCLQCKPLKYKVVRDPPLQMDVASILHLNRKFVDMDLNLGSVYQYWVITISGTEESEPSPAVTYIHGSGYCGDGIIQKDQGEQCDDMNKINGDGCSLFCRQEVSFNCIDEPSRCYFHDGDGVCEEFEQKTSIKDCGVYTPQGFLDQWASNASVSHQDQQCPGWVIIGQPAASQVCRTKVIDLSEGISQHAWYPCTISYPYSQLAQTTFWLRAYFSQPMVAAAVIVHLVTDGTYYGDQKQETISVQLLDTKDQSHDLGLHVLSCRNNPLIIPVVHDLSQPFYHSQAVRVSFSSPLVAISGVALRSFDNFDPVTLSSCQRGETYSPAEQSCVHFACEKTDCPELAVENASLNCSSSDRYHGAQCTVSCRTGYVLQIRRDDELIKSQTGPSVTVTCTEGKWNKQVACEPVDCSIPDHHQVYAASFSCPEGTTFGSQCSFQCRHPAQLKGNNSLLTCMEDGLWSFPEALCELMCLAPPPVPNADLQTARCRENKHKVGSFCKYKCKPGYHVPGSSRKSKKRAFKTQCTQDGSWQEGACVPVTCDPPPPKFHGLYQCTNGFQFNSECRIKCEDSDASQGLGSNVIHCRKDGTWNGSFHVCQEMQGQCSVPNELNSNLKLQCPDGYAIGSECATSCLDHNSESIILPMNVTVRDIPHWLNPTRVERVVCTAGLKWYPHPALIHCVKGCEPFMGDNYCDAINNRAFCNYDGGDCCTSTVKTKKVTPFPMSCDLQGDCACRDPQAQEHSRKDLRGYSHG
Procedure: as §1, §2

PAPP-A = target: T3, PAPP-A (Homo sapiens, UniProt Q13219); assay: IGFBP-4 proteolysis by PAPP-A purified from pregnancy serum, [125I]IGFBP-4 assay; type: biochemical; details: PAPP-A purified from pregnancy serum 500 ng, EDTA 5 mM, 1,10 phenantholine 5 mM, PMSF 10 mM, TIMP-1 5 μg/ml
T3 construct: a pro-part of 58 residues, and an 1547-residue circulating mature polypeptide; from tissue; host or cells: human term pregnancy serum
Procedure: as §1
IGFBP-4 proteolysis was assayed as described in Example 1, by incubating sample at 37° C. for 6 h with [^125I]IGFBP-4. Reaction products were separated by nonreducing 7.5–15% gradient SDS-PAGE, and visualized by autoradiography.
(§3) For some experiments, protease inhibitors (see Table 2) or PAPP-A polyclonal antibody were added to the assay mixture during the 6 h incubation. In others, PAPP-A antibody or nonspecific rabbit IgG was used in conjunction with Protein G-plus/Protein-A-agarose (Oncogene Science) to immunoprecipitate IGFBP-4 protease activity and the sample supernatants were then used in the protease assay.

[4] = target: T4, IGFBP-4 protease activity in follicular fluid (Homo sapiens, UniProt Q13219); assay: IGFBP-4 proteolysis in IVF follicular fluid, cell-free [125I]IGFBP-4 assay; type: biochemical; details: for Effect on IGFBP-4 protease activity in IVF follicular fluid: added to the assay during 6 h incubation; for % Inhibition of IGFBP-4 proteolysis, FF: follicular fluid 10 μl, [125I]IGFBP-4, 6 h 37°C, EDTA 5 mM, 1,10 phenantholine 5 mM, PMSF 10 mM, Pefabloc 1 mM, TIMP-1 5 μg/ml
T4 construct: Follicular fluid was obtained at the time of follicle aspiration for in vitro fertilization (IVF) procedures; from tissue; host or cells: IVF follicular fluid
Procedure: PAPP-A Activity. […] For some experiments, PAPP-A polyclonal antibody or nonspecific rabbit IgG was added to the assay mixture or was used in conjunction with protein G plus protein A-agarose (Oncogene Science) to immunoprecipitate IGFBP-4 protease activity before assay.
as §3

[5] = target: insulin-like growth factor binding protein-4 ([125I]IGFBP-4) (human) (UniProt P22692); assay: cell-based or functional assay
[6] = target: PAPP-A present in pregnancy serum (human, UniProt Q13219 82-1627); assay: cell-based or functional assay
[7] = target: T5, insulin-like growth factor binding protein-4 ([125I]IGFBP-4), P22692
T5 chain: T1 sequence

human granulosa cells = details: Iwashita et al. 1996; cited from earlier work

With recombinant PAPP-A (rPAPP-A) the “amount required for the same degree of IGFBP-4 cleavage” value [1] was “approximately 50 ng of PAPP-A/proMBP complex purified from pregnancy serum was required to obtain the same degree of IGFBP-4 cleavage as 0.1 ng of rPAPP-A” and the “cleavage of IGFBP-4” value [1] was “IGFBP-4 was cleaved in the presence, but not in the absence of IGF”.

For TIMP-1 (from UniProt P01033 24-207), the % Inhibition of IGFBP-4 proteolysis (TIMP-1, 5 ug/ml) [2] was 0% and the % Inhibition of IGFBP-4 proteolysis (TIMP-1, 5 ug/ml) [3] was 0%.

For “rPAPP-A: recombinant PAPP-A expressed in mammalian cells, secreted as a homodimer of about 400 kDa devoid of proMBP”, the “Amount required to obtain the same degree of IGFBP-4 cleavage” value (IGFBP-4) was 0.1 ng, the “Difference in specific activity, rPAPP-A versus PAPP-A in pregnancy serum” value (IGFBP-4; time course, 7 μg/ml each, 5 nM IGF-II) was “about 100 fold” and the “IGF-dependent IGFBP-4 protease activity” value (IGFBP-4) was “cleaves IGFBP-4 in an IGF dependent manner”.

With c1cnc2c(c1)ccc1cccnc12 [1,10 phenantholine, 1,10-phenanthroline] the “Inhibition of rPAPP-A activity against IGFBP-4” value (from here on “Inhibition of rPAPP-A activity”) (rPAPP-A) was “inhibited”, the “% Inhibition of IGFBP-4 proteolysis, PAPP-A” value (shortened to “% Inhibition … PAPP-A”) (PAPP-A) was 100% and the “Effect on IGFBP-4 protease activity in IVF follicular fluid” value (shortened to “Effect on IGFBP-4 protease activity”) [4] was “completely suppressed”. For the same molecule, the “% Inhibition of IGFBP-4 proteolysis, FF” value [4] was 100%.

With Cl.NCCc1ccc(S(=O)(=O)F)cc1 [Pefabloc] the “Effect on IGFBP-4 protease activity” value [4] was “not” and the “% Inhibition of IGFBP-4 proteolysis, FF” value [4] was 15%.

In the case of O=S(=O)(F)Cc1ccccc1 [PMSF], the “% Inhibition … PAPP-A” value (PAPP-A) is reported as 20%, the “Effect on IGFBP-4 protease activity” value [4] is reported as “not” and the “% Inhibition of IGFBP-4 proteolysis, FF” value [4] is reported as 0%.

In the case of “TIMP-1: a broad spectrum inhibitor of matrix metalloproteinases”, the “Inhibition of rPAPP-A activity” value (rPAPP-A) is reported as “not”, the “% Inhibition … PAPP-A” value (PAPP-A) is reported as 0% and the “Effect on IGFBP-4 protease activity” value [4] is reported as “had no effect”. For the same molecule, the “% Inhibition of IGFBP-4 proteolysis, FF” value [4] was 0%.

With “PAPP-A/proMBP: approximately 500 kDa disulfide-linked 2:2 complex of PAPP-A and proMBP purified from pregnancy serum” the “Amount required to obtain the same degree of IGFBP-4 cleavage” value (IGFBP-4) was “approximately 50 ng” and the “IGF-dependent IGFBP-4 protease activity” value (IGFBP-4) was “exhibited IGF-dependent IGFBP-4 protease activity”.

For O=C(O)CN(CCN(CC(=O)O)CC(=O)O)CC(=O)O [EDTA], the “Inhibition of rPAPP-A activity” value (rPAPP-A) was “inhibited” and the “Effect on IGFBP-4 protease activity” value [4] was “completely suppressed”.

In the case of “uncomplexed PAPP-A: PAPP-A antigen eluting around fraction 24 of pregnancy serum, uncomplexed PAPP-A dimer”, the “Specific activity against IGFBP-4, early versus late eluting Mono Q peak of pregnancy serum” value (IGFBP-4; fraction 24 versus fraction 43) is reported as “greater than 25 fold”.

Molecule “PAPP-A/proMBP complex purified from pregnancy serum (from UniProt Q13219 82-1627; P13727 17-222)” has an amount required for the same degree of IGFBP-4 cleavage [5] of 50 ng.

B1: proform of eosinophil major basic protein (proMBP) (other, human, UniProt P13727 17-222, looked up)
chain: LHLRSETSTFETPLGAKTLPEDEETPEQEMEETPCRELEEEEEWGSGSEDASKKDGAVESISVPDMVDKNLTCPEEEDTVKVVGIPGCQTCRYLLVRSLQTFSQAWFTCRRCYRGNLVSIHNFNINYRIQCSVSALNQGQVWIGGRITGSGRCRRFQWVDGSRWNFAYWAAHQPWSRGGHCVALCTRGGHWRRAHCLRRLPFICSY
In the case of B1, the “difference in specific activity between PAPP-A in pregnancy serum and rPAPP-A” value [6] is reported as roughly 100 fold and the “specific activity against IGFBP-4 of the early (uncomplexed) against the late (PAPP-A/proMBP) Mono Q peak” value [6] is reported as greater than 25 fold.

B2: PAPP-A (IGFBP-4 protease) in IVF follicular fluid (protein)
chain: EARGATEEPSPPSRALYFSGRGEQLRLRADLELPRDAFTLQVWLRAEGGQRSPAVITGLYDKCSYISRDRGWVVGIHTISDQDNKDPRYFFSLKTDRARQVTTINAHRSYLPGQWVYLAATYDGQFMKLYVNGAQVATSGEQVGGIFSPLTQKCKVLMLGGSALNHNYRGYIEHFSLWKVARTQREILSDMETHGAHTALPQLLLQENWDNVKHAWSPMKDGSSPKVEFSNAHGFLLDTSLEPPLCGQTLCDNTEVIASYNQLSSFRQPKVVRYRVVNLYEDDHKNPTVTREQVDFQHHQLAEAFKQYNISWELDVLEVSNSSLRRRLILANCDISKIGDENCDPECNHTLTGHDGGDCRHLRHPAFVKKQHNGVCDMDCNYERFNFDGGECCDPEITNVTQTCFDPDSPHRAYLDVNELKNILKLDGSTHLNIFFAKSSEEELAGVATWPWDKEALMHLGGIVLNPSFYGMPGHTHTMIHEIGHSLGLYHVFRGISEIQSCSDPCMETEPSFETGDLCNDTNPAPKHKSCGDPGPGNDTCGFHSFFNTPYNNFMSYADDDCTDSFTPNQVARMHCYLDLVYQGWQPSRKPAPVALAPQVLGHTTDSVTLEWFPPIDGHFFERELGSACHLCLEGRILVQYASNASSPMPCSPSGHWSPREAEGHPDVEQPCKSSVRTWSPNSAVNPHTVPPACPEPQGCYLELEFLYPLVPESLTIWVTFVSTDWDSSGAVNDIKLLAVSGKNISLGPQNVFCDVPLTIRLWDVGEEVYGIQIYTLDEHLEIDAAMLTSTADTPLCLQCKPLKYKVVRDPPLQMDVASILHLNRKFVDMDLNLGSVYQYWVITISGTEESEPSPAVTYIHGSGYCGDGIIQKDQGEQCDDMNKINGDGCSLFCRQEVSFNCIDEPSRCYFHDGDGVCEEFEQKTSIKDCGVYTPQGFLDQWASNASVSHQDQQCPGWVIIGQPAASQVCRTKVIDLSEGISQHAWYPCTISYPYSQLAQTTFWLRAYFSQPMVAAAVIVHLVTDGTYYGDQKQETISVQLLDTKDQSHDLGLHVLSCRNNPLIIPVVHDLSQPFYHSQAVRVSFSSPLVAISGVALRSFDNFDPVTLSSCQRGETYSPAEQSCVHFACEKTDCPELAVENASLNCSSSDRYHGAQCTVSCRTGYVLQIRRDDELIKSQTGPSVTVTCTEGKWNKQVACEPVDCSIPDHHQVYAASFSCPEGTTFGSQCSFQCRHPAQLKGNNSLLTCMEDGLWSFPEALCELMCLAPPPVPNADLQTARCRENKHKVGSFCKYKCKPGYHVPGSSRKSKKRAFKTQCTQDGSWQEGACVPVTCDPPPPKFHGLYQCTNGFQFNSECRIKCEDSDASQGLGSNVIHCRKDGTWNGSFHVCQEMQGQCSVPNELNSNLKLQCPDGYAIGSECATSCLDHNSESIILPMNVTVRDIPHWLNPTRVERVVCTAGLKWYPHPALIHCVKGCEPFMGDNYCDAINNRAFCNYDGGDCCTSTVKTKKVTPFPMSCDLQGDCACRDPQAQEHSRKDLRGYSHG
In the case of B2, the “proteolysis of [125I]IGFBP-4” value [7] is reported as “Incubation of IVF follicular fluid with [125I]IGFBP-4 resulted in the loss of intact IGFBP-4 ... and the generation of radiolabeled fragments of 18- and 14-kDa”.

B3: intact IGFBP4: intact insulin-like growth factor binding protein 4 (protein)
chain: T1 sequence
For B3, the “Effect on IGF-stimulated estradiol production” value (human granulosa cells) is given as “inhibited”.
